The chains are these.
B1: TPR 5TU (parent)
chain: GGAUCUUCUCGAUCUAACAAAAAAGACAAAUCUGCCACAAAGCUUGAGAGCAUCUUCGGAUGCAGAGGCGGCAGCCUUCGGUGGCGCGAUAGCGCCAACGUUCUCAACUAUGACACGCAAAACGCGUGCUCCGUUGAAUGGAGUUUAUCAUG

Variants at the floor of the assay were thinned out.

In the data set the parent is B1. In words: polymerase ribozyme fitness, log enrichment relative to wild type (log ratio); higher = more active; in vitro selection for triplet polymerase activity. Summed up: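 Mutant libraries for each subunit of a heterodimeric triplet polymerase ribozyme were made by PCR and then transcribed. Each library underwent one round of in vitro selection in triplicate: annealing with a biotinylated primer, the partner subunit and triplets, frozen incubation at −7 °C, gel excision of extended constructs, streptavidin-bead capture and RT-PCR. Input and output libraries were Illumina-sequenced, and only genotypes with ≥10 input reads and ≥1 read per output were kept. Fitness is the logarithm, base 2, of genotype enrichment over wild-type enrichment, computed from inverse-variance-weighted replicate averages.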
For the variant C38U G84U, the “polymerase ribozyme fitness (log ratio)” value is -2.42. Regarding C38A C54U A73U, the “polymerase ribozyme fitness (log ratio)” value is -2.15.

In the case of U55A C93U A115U G143U, the “polymerase ribozyme fitness (log ratio)” value was not above -4.2.

For C5A U45G C85G, the “polymerase ribozyme fitness (log ratio)” value was -2.33.

With C35G C76U, the “polymerase ribozyme fitness (log ratio)” value was -3.99. For the variant U31A G68C C76A C85A, the “polymerase ribozyme fitness (log ratio)” value is not above -4.2.

With A17C C18G G58A C69G C85U, the “polymerase ribozyme fitness (log ratio)” value is -2.39. In the case of U6A C79A G86U A89C C103G, the “polymerase ribozyme fitness (log ratio)” value was not above -4.2. As for A49G C57U C75A U146G, the “polymerase ribozyme fitness (log ratio)” value is not above -4.2. For A12U G58U G83A C93A the value was not above -4.2; for C38U G62U C96G, -1.8; for A16U G94C, -2.55. With A40C G50A the figure was -2.43. Turning to A21G U56C C93U, the “polymerase ribozyme fitness (log ratio)” value was -0.835. With C5G A28G G48C G83C U104G G133U the figure was not above -4.2. For U77G G141A the value was -4.18; for A52C C54A, not above -4.2. For the variant C54U, the “polymerase ribozyme fitness (log ratio)” value was -0.314.

Take A37U U55A G58C A142U: the “polymerase ribozyme fitness (log ratio)” value is -2.45. With G94C U134G U135C the figure was not above -4.2; with A3C A16G C99G U102G A106U, not above -4.2. Regarding A47C G50C, the “polymerase ribozyme fitness (log ratio)” value is -4.1. With G58U C87U C125G the figure was -0.741; with C95A G141C, 0.744. For A16G G81A G83A C93U G128C U134G the value was not above -4.2; for C14G C18U, -1.18. With C18G A22G A23C C69A G86U the figure was not above -4.2; with C51G U56A G117U, -2.86. Turning to C57A G133U, the “polymerase ribozyme fitness (log ratio)” value was -3.13. Take G92A C118G: the “polymerase ribozyme fitness (log ratio)” value is -3.69. For U53G A60G C87A the value was not above -4.2; for A24U U102C A120G A121C, -2.13; for G65U G94A, not above -4.2. For A23G A49U C51U U53A A60G U61A G71U A73G C85A C87A C105G, the “polymerase ribozyme fitness (log ratio)” value is not above -4.2. For A29G G94U A97G C149U, the “polymerase ribozyme fitness (log ratio)” value was not above -4.2. For the variant C35U U56A C57A A97U C123U U130C, the “polymerase ribozyme fitness (log ratio)” value was -0.0554.

Turning to U9G G46C C76A C85G U90G A121U, the “polymerase ribozyme fitness (log ratio)” value was not above -4.2.

For the variant A40U A107U C132G, the “polymerase ribozyme fitness (log ratio)” value is not above -4.2. For C10G C85U A91C C105A the value was not above -4.2; for U4G, -0.0773. For U9G A142G the value was not above -4.2; for G11A G50U U82C G86A C116A, -3.47; for A16C U144G, -0.499. Take U31G C95A C123G: the “polymerase ribozyme fitness (log ratio)” value was determined as 0.831. In the case of C57U C85U G143A, the “polymerase ribozyme fitness (log ratio)” value is -0.317.

Turning to G59A G70U C93G A113U, the “polymerase ribozyme fitness (log ratio)” value is not above -4.2. With A89C A150G the figure was -0.921; with G42C A60U G67C G128U A138U, not above -4.2; with A20U A30C A41G G74U C93U, not above -4.2. Consider C5U C8G A137U U145A A147C, for which the “polymerase ribozyme fitness (log ratio)” value was not above -4.2. Take A30C A52C C85U C99A A115U C131U G141C: the “polymerase ribozyme fitness (log ratio)” value was not above -4.2. For C14A U102G the value was not above -4.2; for C36U C79A C87U A115C A122C C131G, not above -4.2. With C18G G42A U45A G58U A122C A142G the figure was not above -4.2; with A39C C85A C118A, -3.96; with U15G A37U U55A U56C C87G C95U A106G G136A U145G, not above -4.2. Regarding C123U G124A U144C, the “polymerase ribozyme fitness (log ratio)” value turned out to be 0.0575.

Take C8U A17G G84U G133C: the “polymerase ribozyme fitness (log ratio)” value is not above -4.2. For C14A A16C A28G A60G C79G A91G U109A the value was not above -4.2; for G92U G133U, -3.41; for A22U U31C G81C A89C, 1.01. C5G A40C C69A G70U A89C: the “polymerase ribozyme fitness (log ratio)” value is not above -4.2. Turning to C5A G42C, the “polymerase ribozyme fitness (log ratio)” value is -4.02. G92C G141A: the “polymerase ribozyme fitness (log ratio)” value is -0.778. On to A12G A24U C87U, for which the “polymerase ribozyme fitness (log ratio)” value is 0.648. With C131A, the “polymerase ribozyme fitness (log ratio)” value is -1.77.

For the variant A89C A142G, the “polymerase ribozyme fitness (log ratio)” value is -1.52.

As to A17U C114U, the “polymerase ribozyme fitness (log ratio)” value was -1.91. With A16G A49U C131U the figure was -1.5; with U78A C93A G94U, -4.16. Consider U4A A39C U53A C96U C108U A120U C125U, for which the “polymerase ribozyme fitness (log ratio)” value is not above -4.2.

For A24U U31A A37U G143C, the “polymerase ribozyme fitness (log ratio)” value was not above -4.2. For G11C G46C G59C G92U the value was -3.55; for C10G C27A A39U C75A G92C A97U A121U, not above -4.2; for A22G C76U, 0.868.

C72U C93U: the “polymerase ribozyme fitness (log ratio)” value is -0.741.

Turning to A40U G84A, the “polymerase ribozyme fitness (log ratio)” value was -0.341.

In the case of A39G A147U, the “polymerase ribozyme fitness (log ratio)” value was -0.693. For A23G U61G C93G G126A, the “polymerase ribozyme fitness (log ratio)” value was not above -4.2. For G34A G74U G94A C116G the value was not above -4.2; for A49C G62U A107U G152A, not above -4.2; for C85A U134G, -3.6. With G48U G83A U134A G136A the figure was -2.44.

As for A17U A22U U90G C125A U139C, the “polymerase ribozyme fitness (log ratio)” value is not above -4.2.

(Values after the RNAGym collection of RNA variant scans (doi:10.1073/pnas.2313332121).)
